Measurements taken from the supplement of paper PMC7877785.
± gives the uncertainty stated by the source.

Assay: self-splicing fitness, log relative to wild type (ln ratio); higher = more splicing; Tetrahymena group I intron in knt gene, E. coli kanamycin selection, DiMSum; sequences stand for … in CUCUCU…GGAGGGAAAAGUUAUCAGGCAUGCACCUGGUAGCUAGUCUUUAAACCAAUAGAUUGCAUCGGUUUAAAAGGCAAGACCGUCAAAUUGCGGGAAAGGGGUCAACAGCCGUUCAGUACCAAGUCUCAGGGGAAACUUUGAGAUGGCCUUGCAAAGGGUAUGGUAAUAAGCUGACGGACAUGGUCCUAACCACGCAGCCAAGUCCUAAGUCAACAGAUCUUCUGUUGAUAUGGAUGCAGUUCACAGACUAAAUGUCGGUCGGGGAAGAUGUAUUCUUCUCAUAAGAUAUAGUCGGACCUCUCCUUAAUGGGAGCUAGCGGAUGAAGUGAUGCAACACUGGAGCCGCUGGGAACUAAUUUGUAUGCGAAAGUAUAUUGAUUAGUUUUGGAGUACUCGUGGUCG
Method in brief: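 Pooled colonies went to amplicon sequencing on an Illumina HiSeq 2500 after six replicate transformations. The plates were LB agar with 100 μg/mL carbenicillin, 50 μM IPTG and 0.2% rhamnose, with or without 25 μg/mL kanamycin, incubated overnight at 37°C or 30°C. The E. coli BL21(DE3) library had all eight P1ex-region intron nucleotides randomised, the intron placed in the knt kanamycin-resistance gene on pET-22b(+). DiMSum fitness is the error-weighted combination of replicate fold changes, kanamycin against none, normalised to wild type.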

| Sequence | self-splicing fitness (ln) (30 °C) | self-splicing fitness (ln) (37 °C) |
| --- | --- | --- |
| CGGGAGCAAUAUUACGAACG | -4.35 ± 0.24 | -3 ± 0.23 |
| CGGGAGCAAUAUUACGAAUA | -2.55 ± 0.36 | -2.52 ± 0.39 |
| CGGGAGCAAUAUUACGACCA | -1.08 ± 0.31 | – |
| CGGGAGCAAUAUUACGAGAC | -3.18 ± 0.45 | -2.45 ± 0.44 |
| CGGGAGCAAUAUUACGAUAU | -3.65 ± 0.35 | – |
| CGGGAGCAAUAUUACGAUGU | -2.47 ± 0.39 | -2.53 ± 0.39 |
| CGGGAGCAAUAUUACGCAAA | – | -2.01 ± 0.35 |
| CGGGAGCAAUAUUACGCAAG | -3.14 ± 0.23 | -2.13 ± 0.29 |
| CGGGAGCAAUAUUACGCAGU | – | -1.82 ± 0.29 |
| CGGGAGCAAUAUUACGCAUA | -2.61 ± 0.37 | -1.96 ± 0.35 |
| CGGGAGCAAUAUUACGCGCG | – | -0.901 ± 0.27 |
| CGGGAGCAAUAUUACGCGUU | -1.22 ± 0.23 | – |
| CGGGAGCAAUAUUACGCUGG | -4.21 ± 0.42 | -2 ± 0.3 |
| CGGGAGCAAUAUUACGGCAG | -2.71 ± 0.21 | -1.12 ± 0.26 |
| CGGGAGCAAUAUUACGGGCU | -3.85 ± 0.34 | -2.5 ± 0.41 |
| CGGGAGCAAUAUUACGUACG | -2.98 ± 0.11 | -1.53 ± 0.097 |
| CGGGAGCAAUAUUACGUAGA | -3.97 ± 0.47 | -1.96 ± 0.26 |
| CGGGAGCAAUAUUACGUAGU | – | -1.78 ± 0.29 |
| CGGGAGCAAUAUUACGUUGG | -3.83 ± 0.22 | -2.52 ± 0.2 |
| CGGUAGCAAUAUUACGACCA | -0.494 ± 0.17 | -0.426 ± 0.14 |
| CGGUAGCAAUAUUACGACUA | -0.298 ± 0.14 | 0.0316 ± 0.16 |

| Sequence | self-splicing fitness (ln) (30 °C) | self-splicing fitness (ln) (37 °C) |
| --- | --- | --- |
| CGGUAGCAAUAUUACGAGCG | -0.978 ± 0.19 | -0.291 ± 0.14 |
| CGGUAGCAAUAUUACGAUAG | -0.323 ± 0.11 | 0.279 ± 0.14 |
| CGGUAGCAAUAUUACGAUUA | -2.71 ± 0.31 | 0.554 ± 0.2 |
| CGGUAGCAAUAUUACGCCAA | -2.52 ± 0.21 | -2.6 ± 0.3 |
| CGGUAGCAAUAUUACGCGAG | -3.58 ± 0.31 | -2.36 ± 0.4 |
| CGGUAGCAAUAUUACGCGGA | -2.54 ± 0.12 | -1.26 ± 0.097 |
| CGGUAGCAAUAUUACGCGGC | -3.99 ± 0.24 | -2.79 ± 0.25 |
| CGGUAGCAAUAUUACGCGGG | -2.49 ± 0.18 | -1.88 ± 0.24 |
| CGGUAGCAAUAUUACGCGUG | -2.11 ± 0.15 | -1.82 ± 0.14 |
| CGGUAGCAAUAUUACGCUCC | -2.2 ± 0.38 | – |
| CGGUAGCAAUAUUACGCUUC | – | -0.894 ± 0.24 |
| CGGUAGCAAUAUUACGGAAC | – | -2.37 ± 0.36 |
| CGGUAGCAAUAUUACGGCCC | -0.507 ± 0.2 | 0.668 ± 0.37 |
| CGGUAGCAAUAUUACGGCGC | -2.04 ± 0.23 | -1.95 ± 0.24 |
| CGGUAGCAAUAUUACGGCGG | 0.494 ± 0.093 | 0.0118 ± 0.096 |
| CGGUAGCAAUAUUACGGGAC | -3.63 ± 0.47 | -4.61 ± 0.46 |
| CGGUAGCAAUAUUACGGGGA | -2.53 ± 0.24 | -3.03 ± 0.47 |
| CGGUAGCAAUAUUACGGGUC | -4.51 ± 0.46 | -4.33 ± 0.39 |
| CGGUAGCAAUAUUACGGUCA | -0.916 ± 0.092 | -0.275 ± 0.084 |
| CGGUAGCAAUAUUACGGUGA | -3.76 ± 0.41 | -0.848 ± 0.17 |
| CGGUAGCAAUAUUACGGUUA | -2.23 ± 0.13 | -1.3 ± 0.11 |
